The values that follow come from PMC10786891, “Massively parallel profiling of RNA-targeting CRISPR-Cas13d”.

Usually Kd stands for the equilibrium constant for the complex coming apart.

Sequences and labels used below:
B1: target 1 A9U,U11C (mixed)
RNA 1: CACCCGUGCAAAAAUGCAGGGGUCUAAAACUGAGCGGAUAACCUCUCUAUGG
RNA 2: GGGAAUGGAUCCACAUCUACGAAUUCGUACCAUAGAGAGGCUUUCCGCUCACCGAGAUCGGAAGAGCACACGU
B2: target 1 insA 3' of 2 (mixed)
RNA 1: CACCCGUGCAAAAAUGCAGGGGUCUAAAACUGAGCGGAUAACCUCUCUAUGG
RNA 2: GGGAAUGGAUCCACAUCUACGAAUUCGUACCAUAGAGAGGUUAUCCGCUCAACCGAGAUCGGAAGAGCACACGU
B3: target 1 insU 3' of 12,insA 3' of 11 (mixed)
RNA 1: CACCCGUGCAAAAAUGCAGGGGUCUAAAACUGAGCGGAUAACCUCUCUAUGG
RNA 2: GGGAAUGGAUCCACAUCUACGAAUUCGUACCAUAGAGAGGUUAUAUCCGCUCACCGAGAUCGGAAGAGCACACGU
B4: target 1 insG 3' of 16,insU 3' of 15 (mixed)
RNA 1: CACCCGUGCAAAAAUGCAGGGGUCUAAAACUGAGCGGAUAACCUCUCUAUGG
RNA 2: GGGAAUGGAUCCACAUCUACGAAUUCGUACCAUAGAGGUAGGUUAUCCGCUCACCGAGAUCGGAAGAGCACACGU
B5: target 1 insC 3' of 5,insG 3' of 4 (mixed)
RNA 1: CACCCGUGCAAAAAUGCAGGGGUCUAAAACUGAGCGGAUAACCUCUCUAUGG
RNA 2: GGGAAUGGAUCCACAUCUACGAAUUCGUACCAUAGAGAGGUUAUCCGCCGUCACCGAGAUCGGAAGAGCACACGU
B6: target 1 A9U,U19G (mixed)
RNA 1: CACCCGUGCAAAAAUGCAGGGGUCUAAAACUGAGCGGAUAACCUCUCUAUGG
RNA 2: GGGAAUGGAUCCACAUCUACGAAUUCGUACCAGAGAGAGGUUUUCCGCUCACCGAGAUCGGAAGAGCACACGU
B7: target 1 insG 3' of 8,insA 3' of 7 (mixed)
RNA 1: CACCCGUGCAAAAAUGCAGGGGUCUAAAACUGAGCGGAUAACCUCUCUAUGG
RNA 2: GGGAAUGGAUCCACAUCUACGAAUUCGUACCAUAGAGAGGUUAUGCACGCUCACCGAGAUCGGAAGAGCACACGU
B8: target 1 insC 3' of 22,insC 3' of 20 (mixed)
RNA 1: CACCCGUGCAAAAAUGCAGGGGUCUAAAACUGAGCGGAUAACCUCUCUAUGG
RNA 2: GGGAAUGGAUCCACAUCUACGAAUUCGUACCCACUAGAGAGGUUAUCCGCUCACCGAGAUCGGAAGAGCACACGU
B9: target 1 insA 3' of 22,insC 3' of 10 (mixed)
RNA 1: CACCCGUGCAAAAAUGCAGGGGUCUAAAACUGAGCGGAUAACCUCUCUAUGG
RNA 2: GGGAAUGGAUCCACAUCUACGAAUUCGUACACAUAGAGAGGUUCAUCCGCUCACCGAGAUCGGAAGAGCACACGU
B10: target 1 insG 3' of 21,insG 3' of 21 (mixed)
RNA 1: CACCCGUGCAAAAAUGCAGGGGUCUAAAACUGAGCGGAUAACCUCUCUAUGG
RNA 2: GGGAAUGGAUCCACAUCUACGAAUUCGUACCGGAUAGAGAGGUUAUCCGCUCACCGAGAUCGGAAGAGCACACGU
B11: target 1 insC 3' of 17,insC 3' of 1 (mixed)
RNA 1: CACCCGUGCAAAAAUGCAGGGGUCUAAAACUGAGCGGAUAACCUCUCUAUGG
RNA 2: GGGAAUGGAUCCACAUCUACGAAUUCGUACCAUAGCAGAGGUUAUCCGCUCACCCGAGAUCGGAAGAGCACACGU
B12: target 1 C2G,G13A (mixed)
RNA 1: CACCCGUGCAAAAAUGCAGGGGUCUAAAACUGAGCGGAUAACCUCUCUAUGG
RNA 2: GGGAAUGGAUCCACAUCUACGAAUUCGUACCAUAGAGAAGUUAUCCGCUGACCGAGAUCGGAAGAGCACACGU
B13: target 1 U8G,G15U (mixed)
RNA 1: CACCCGUGCAAAAAUGCAGGGGUCUAAAACUGAGCGGAUAACCUCUCUAUGG
RNA 2: GGGAAUGGAUCCACAUCUACGAAUUCGUACCAUAGAUAGGUUAGCCGCUCACCGAGAUCGGAAGAGCACACGU

This data set deals with T1, EsCas13d, nuclease-dead (Eubacterium siraeum, UniProt B0MS50, R295A;H300A;R849A;H854A).
T1 sequence: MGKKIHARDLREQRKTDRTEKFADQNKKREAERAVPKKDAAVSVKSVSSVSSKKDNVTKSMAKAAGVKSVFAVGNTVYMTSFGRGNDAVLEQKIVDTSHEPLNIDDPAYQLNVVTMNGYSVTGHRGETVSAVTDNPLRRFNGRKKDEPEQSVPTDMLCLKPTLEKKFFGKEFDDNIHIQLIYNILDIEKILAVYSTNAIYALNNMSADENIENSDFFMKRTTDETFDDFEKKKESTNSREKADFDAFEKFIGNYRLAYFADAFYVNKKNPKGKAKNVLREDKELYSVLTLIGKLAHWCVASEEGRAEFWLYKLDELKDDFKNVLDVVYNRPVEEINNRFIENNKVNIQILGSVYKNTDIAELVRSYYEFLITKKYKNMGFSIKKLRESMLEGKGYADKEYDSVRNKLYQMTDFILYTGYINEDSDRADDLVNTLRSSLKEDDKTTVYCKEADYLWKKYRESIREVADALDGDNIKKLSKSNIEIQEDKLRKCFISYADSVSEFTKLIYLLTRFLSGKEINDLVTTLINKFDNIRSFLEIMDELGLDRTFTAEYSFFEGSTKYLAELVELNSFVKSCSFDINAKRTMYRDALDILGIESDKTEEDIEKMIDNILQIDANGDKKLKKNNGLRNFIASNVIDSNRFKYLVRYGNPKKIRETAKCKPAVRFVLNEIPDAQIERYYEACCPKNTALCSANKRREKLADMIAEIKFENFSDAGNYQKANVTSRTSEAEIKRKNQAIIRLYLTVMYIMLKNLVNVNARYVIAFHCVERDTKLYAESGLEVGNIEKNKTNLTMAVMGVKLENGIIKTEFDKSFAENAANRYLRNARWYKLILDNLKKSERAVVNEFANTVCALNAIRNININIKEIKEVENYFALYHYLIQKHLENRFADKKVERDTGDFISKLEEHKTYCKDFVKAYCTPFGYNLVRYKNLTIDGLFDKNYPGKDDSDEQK
Nature of the data set: crRNA (strand 1, pre-loaded); Mg2+; 40 mM Tris-HCl pH 7.5, 150 mM NaCl, 6 mM MgCl2, 1 mM DTT, 0.1% Tween-20, 0.2 mg/ml BSA; 25 C; 10 min per concentration, then washed. As to conditions: tags: His6-TwinStrep-SUMO cleaved; N-terminal SNAP kept (SNAP-Surface 488); label: 3' end held by stalled T7 RNA polymerase.
Turning to B1, binding was characterised by a dissociation constant (Kd) of 13 ± 1 nM.

The molecule B2 yielded a Kd of 8.5 ± 0.5 nM.

B3 returned a Kd of 13 ± 0.9 nM.

Regarding B4, the Kd worked out at 26 ± 4 nM.

For the molecule B5, the Kd turned out to be 9.2 ± 0.8 nM.

For the molecule B6, the Kd amounted to 72 ± 9 nM.

On to B7, for which the Kd was found to be 10.6 ± 0.6 nM.

Turning to B8, the Kd amounted to 13.3 ± 1.7 nM.

B9: the Kd was found to be 29 ± 4 nM.

In turn, B10 gave a Kd of 87 ± 24 nM.

Regarding B11, binding was put at a Kd of 39 ± 4 nM.

As to B12, the affinity, expressed as Kd, was 5.4 ± 0.6 nM.

On to B13, for which the Kd amounted to 73 ± 12 nM.
